Laboratory results as given in US20140087991A1, “PEPTIDE PRODRUGS” (The Johns Hopkins University, priority 2006, published 2014).
Ends that are not written are not given here. * marks the point of attachment. Mu = morpholinocarbonyl, O=C(N1CCOCC1)*

Columns and labels:
FAP = biological target: T1, FAP (Homo sapiens, UniProt Q12884); experiment: Digestion of human collagen I and recombinant gelatins with FAP (SDS-PAGE, MALDI); assay type: biochemical; conditions: SDS PAGE and MALDI spectra
T1 construct: the extracellular domain of FAP was cloned with a His-6 tag; made in house
T1 sequence (Q12884 26-760 limits assumed): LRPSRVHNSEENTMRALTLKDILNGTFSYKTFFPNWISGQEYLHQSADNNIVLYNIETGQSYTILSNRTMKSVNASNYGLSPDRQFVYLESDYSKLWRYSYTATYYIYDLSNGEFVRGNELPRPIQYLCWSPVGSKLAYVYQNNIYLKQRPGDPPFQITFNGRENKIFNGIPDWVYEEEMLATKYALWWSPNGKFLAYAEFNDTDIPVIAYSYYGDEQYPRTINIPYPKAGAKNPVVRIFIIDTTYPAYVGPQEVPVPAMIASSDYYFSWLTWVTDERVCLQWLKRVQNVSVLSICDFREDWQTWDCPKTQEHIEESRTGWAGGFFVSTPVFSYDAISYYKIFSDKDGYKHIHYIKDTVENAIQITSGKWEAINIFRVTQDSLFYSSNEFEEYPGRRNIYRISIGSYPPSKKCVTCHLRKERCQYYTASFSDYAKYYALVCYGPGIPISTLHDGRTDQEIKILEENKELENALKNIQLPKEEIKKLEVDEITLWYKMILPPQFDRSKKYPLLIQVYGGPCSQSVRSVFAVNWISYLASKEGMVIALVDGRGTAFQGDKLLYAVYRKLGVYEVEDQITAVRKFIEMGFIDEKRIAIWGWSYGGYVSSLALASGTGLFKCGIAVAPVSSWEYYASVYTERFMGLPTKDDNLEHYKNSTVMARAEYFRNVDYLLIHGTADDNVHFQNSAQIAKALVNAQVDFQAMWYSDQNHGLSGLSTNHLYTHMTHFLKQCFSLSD
Description: Human collagen I (Becton Dickinson, Franklin Lakes, N.J.) and recombinant human gelatins of 100 KDa and 8.5 KDa (Fibrogen, San Francisco, Calif.) were dissolved in reaction buffer to a final concentration of 100-300 μg/ml. 0.5-1 μg of FAP was added per 100 μgs of protein substrate. Digestion was done for 4-6 hrs at 37° C. As a positive control trypsin digestion was used. As a negative control, protein solutions were incubated either with BSA or buffer only. Peptide fragments of a size <30 KDa were purified using 30 KDa Microcon spin filter (Millipore, Billerica, Mass.).
In an effort to elucidate the substrate specificity of FAP, we examined FAP digests of unlabeled human Collagen I using matrix assisted laser desorption ionization (MALDI) time of flight mass spectrometry. Digestion reactions were performed at a substrate to protease mass ratio of 200:1 using recombinant FAP or modified trypsin as a control. Two negative controls of Collagen alone and FAP alone were also included to identify any peptides due to autolysis/degradation of these proteins. […]
As Collagen I and Gelatin are currently the only known protein substrates for FAP, we developed an alternative method to identify FAP-selective cleavage sites within these proteins. […] The masses of fragments <3 KDa were purified for MALDI spectra and again analyzed using the FindPept tool. […]

His-tagged FAP = biological target: T2, His-tagged FAP (Homo sapiens, UniProt Q12884); experiment: FAP hydrolysis of MCA/DNP fluorescence quenched peptide substrates; assay type: biochemical
T2 construct: the extracellular domain of FAP was cloned with a His-6 tag; made in house
T2 sequence (Q12884 26-760 limits assumed): T1 sequence (Q12884 26-760 limits assumed)
Description: Quenched substrates were prepared by using the MCA/DNP fluorophore/quencher pair. Synthesis of peptides was done using standard Fmoc solid phase coupling on NovaTag™ Dnp resin with a substitution level of 0.4 mmole/g (Novabiochem, San Diego, Calif.). N-terminal capping was done twice overnight with N-(7-methoxycoumarin-4-acetyloxy)succinimide (MCA-Osu) and 1-Hydroxybenzotriazole (HOBt) in N-Methyl 2 Pyrrolidone (NMP). Peptides were cleaved with 95% TFA, 2.5% TIS and 2.5% water. The purity and mass of each quenched peptide was confirmed by Reversed Phase-HPLC and MALDI-TOF analysis.
Quenched peptide substrates were weighed and dissolved in DMSO to obtain a final concentration of 50 mM and were stored at −20° C. until later use. Dilutions (e.g. 200 μM, 100 μM, 50 μM, 25 μM) were prepared in duplicates in the reaction buffer. His-tagged FAP was added to a final concentration of 5 nM. Release of free MCA was measured at excitation 355 nm and emission 460 nm in a 96-well fluorescence plate reader. Controls consisted of substrates in buffer±BSA.
On the basis of the 8.5 kDa gelatin cleavage map a series of fluorescence quenched substrates were prepared (colored sequences in Table 3) by using the Methoxycoumarin (MCA)/Dinitrophenyl (DNP) FRET combination (52). […]

[1] = system: control cells transfected with PSMA; experiment: Hydrolysis of quenched peptides by control cells transfected with PSMA; assay type: cell-based, human; conditions: 50 μM
Description: (§1) Subsequently, one of the MDA-MB-231 clones was used to evaluate FAP activity in vitro. In this assay cells were grown in serum containing media to 70% confluency followed by addition of fluorescence quenched peptides into the media at concentration of 50 μM. As a control cell lines transfected with the carboxypeptidase PSMA using the same vector system were used. Cells were incubated with three different FAP substrates, FIG. 18.

[2] = system: FAP-transfected MDA-MB-231 cells; experiment: Hydrolysis of quenched peptides by FAP-transfected MDA-MB-231 cells; assay type: cell-based, human; conditions: 50 μM in serum containing media
Excerpt: Human breast cancer cell lines MCF-7 and MDA-MB-231 were selected for transfection because the cells were negative for FAP when grown under standard culture conditions (25). Details of transfection methodology are described in methods section of Specific Aim 2 below. Briefly, a 2.2 kb PCR fragment was purified by gel electrophoresis, digested with NheI and cloned into bicistronic pIRES vector (kindly provided by Dr. Ben Park, The Johns Hopkins University) previously digested with Nhe 1. Final construct was designated as pFAPIRES. Sequencing primers were designed for the entire length of the gene and were confirmed to be correct. The cells were transfected using Fugene 6 (Roche). Control transfections were done on the same lines with the empty IRES vector. Cells were characterized for production of FAP by Flow Cytometry (FIG. 17A-FIG. 17D).
as §1

[3] = system: human MDA-MB231 breast cancer xenografts; experiment: Antitumor effect in breast cancer xenografts; assay type: in vivo, nude mice; conditions: FIG. 6 legend, values not given

Substance: human Collagen I: unlabeled human collagen I (Becton Dickinson)
- digestion by FAP (FAP): cleaved by FAP at certain specific sites

Substance: VGPAGK (also: MCA/DNP quench labels) [tested as MCA/DNP fluorescence quenched substrate]
- Km (His-tagged FAP; FAP hydrolysis of quenched substrate, Michaelis Menten): ~50 µM
- hydrolysis by FAP (His-tagged FAP; substrate at 25 μM): rapidly hydrolyzed
- hydrolysis by control media [1]: relatively stable to hydrolysis
- hydrolysis by FAP-positive cells [2]: appreciably hydrolyzed

Substance: FAP activated prodrug: FAP selective peptide Mu-SGEAGPA (Mu = morpholinocarbonyl) coupled to 12 ADT (12-aminododecanoyl thapsigargin) (not fully specified (C-terminus); printed as Mu-SGEAGPA; also: coupled to 12ADT (12-aminododecanoyl thapsigargin))
- antitumor effect [3]: antitumor effect
